This note sets out measurements from PMC10110401, “HuR modulation counteracts lipopolysaccharide response in murine macrophages”.

The data set deals with HuR M1M2 (rM1M2_HuR) (UniProt Q15717 20-186). The data set is described as follows: HTRF; 20 nM protein, 50 nM probe; hook point titration 0-500 nM protein; TM7nox inhibits with IC50 0.7956 uM (small-molecule value); REMSA: 3.7 nM (or 100 nM) protein, 1 nM probe, 30 min, 4% native PAGE, buffer not given; HTRF: 20 nM protein, 50 nM probe, buffer not given; pull-down: lysis in 20 mM Tris-HCl pH 7.5, 100 mM KCl, 5 mM MgCl2, 0.5% NP-40, probe 0.5 uM in TENT (20 mM Tris-HCl pH 8.0, 2 mM EDTA, 500 mM …). Particulars: protein: recombinant; tags: His-tag; label: biotin; single strand.
Chain of HuR M1M2 (rM1M2_HuR) (Q15717 20-186): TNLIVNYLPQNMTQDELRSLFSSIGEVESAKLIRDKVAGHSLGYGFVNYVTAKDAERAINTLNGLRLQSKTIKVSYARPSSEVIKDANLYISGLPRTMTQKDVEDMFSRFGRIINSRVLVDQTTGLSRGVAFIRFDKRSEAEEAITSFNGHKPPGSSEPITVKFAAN

Consider AUUAUUUAUUAUUUAUUUAUUAUUUA (ssRNA, 5'-biotin) [Bi-TNF ARE probe], for which the binding result is “binds”.
